± gives the half width of the 95% confidence interval.
What was measured:
[1] = folding stability dG unfold (combined trypsin and chymotrypsin); higher = more stable
Outline: (§1)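 Digests were run with trypsin and chymotrypsin at 11 concentrations in threefold dilutions, plus a no-protease condition, on designed mini-proteins in a PA-tagged cDNA display construct. The mini-proteins were under 80 residues, had no cysteine, and were kept only when AlphaFold2 dimer inter-PAE was above 15. After sequencing, Bayesian fitting of the counts gave K50, from which unfolding free energy was derived against a sequence-predicted unfolded-state K50 and a shared folded-state K50, per protease or combined.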

[2] = folding stability dG unfold from chymotrypsin proteolysis; higher = more stable
Outline: as §1

[3] = folding stability dG unfold from trypsin proteolysis; higher = more stable
Outline: as §1

Sequence	folding stability dG unfold [1]	folding stability dG unfold [2]	folding stability dG unfold [3]
SAGGSAMDPSKLVRKKVRFRVVDPNGKPLGEIDIEVEFPGGVSEEEAEELLRELIAALAPPAGVEGSAGGSA [r15_310_TrMRF]	2.73 ± 0.071 kcal/mol	3.023 ± 0.023 kcal/mol	1.52 ± 0.022 kcal/mol
SAEKPPVVTLEIEIEIVVKDENGKTHKRKFRLTVTFYPDGTVEISIYDENGELIETITLPPGATLEELLSAG [r14_559_TrROS_Hall]	3.61 ± 0.11 kcal/mol	3.99 ± 0.15 kcal/mol	2.26 ± 0.083 kcal/mol
SAGDVKVITIKNPDGWQASIALNEDGTVYLMFNSPDQFLDLIEDLGFPITSVEMHPNGMMIFTIELPPSAGG [r19_257_TrROS]	3.41 ± 0.18 kcal/mol	4.26 ± 0.17 kcal/mol	2.27 ± 0.061 kcal/mol
SALPPGTTVTYTFYDPATGALVTVTVTTLPDGTVRVTLTVYDPSTGETTTVTFTVDGATLDELLDFIRAGSA [r9_618_TrMRF]	5.37 ± 0.32 kcal/mol	5.28 ± 0.18 kcal/mol	3.77 ± 0.3 kcal/mol
SAGGSAGGSAKMEIVLEVDTPEEAKEAAKKLAEELKKKGYKVKVEVKKLKNGKYYVKITVDSAGGSAGGSAG [r3_211_TrROS_Hall]	4.66 ± 0.33 kcal/mol	4.84 ± 0.26 kcal/mol	3.33 ± 0.23 kcal/mol
SAGGSAGGSAGGDKNKPPKLKVKLKIEFPFTLPDGVKVRLEVEIDLDSDVIEPRAEVIDSSAGGSAGGSAGG [r7_213_TrMRF]	2.64 ± 0.081 kcal/mol	2.98 ± 0.086 kcal/mol	1.76 ± 0.035 kcal/mol
SAGGSAGGWPLMVEYTPPGDGKTQTYPIPIKGPLSEIKDQIKENMPPGFREVEISPANIEKILKSAGGSAGG [r6_889_TrROS]	< -1 kcal/mol	-0.952 ± 0.5 kcal/mol	-0.76 ± 0.39 kcal/mol
SAGGSAGGSAGGKLPPGDIIPMEFEAEFPVYKRDPEGGDWEPIGPMRIDFTIIIRLPPGSAGGSAGGSAGGS [r10_1115_TrROS]	2.67 ± 0.22 kcal/mol	2.91 ± 0.14 kcal/mol	2.5 ± 0.22 kcal/mol
SADPGDTVELEFWLPPGMNPEFVEQMEDEIRNILRDLGLEVDVKVEPDPDNGYVPVTITITKEQLKDLFSAG [r14_602_TrROS]	1.82 ± 0.18 kcal/mol	1.74 ± 0.1 kcal/mol	1.93 ± 0.12 kcal/mol
SAGGSAPSPEVPLWRFEAPGASGGVALIEGYPGGELRVVFFTDDGRPVELTFPVVVLPPAPLEELFSAGGSA [r15_478_TrMRF]	1.38 ± 0.075 kcal/mol	1.24 ± 0.086 kcal/mol	1.51 ± 0.039 kcal/mol
SAGGSAGGSAGGSMKIELPEGAEITEIKKLPNGTYEMTIRVDGKELKIRFVDGKLVIVPSAGGSAGGSAGGS [r4_280_TrROS_Hall]	3.56 ± 0.077 kcal/mol	3.51 ± 0.057 kcal/mol	3.62 ± 0.14 kcal/mol
SAGGPKVVRIRYTMPPDQARDFIEELFGRPMSADDIADKLPPGFKVGIRAHPNPNGHVTFEIWIKLPDSAGG [r13_869_TrROS]	2.93 ± 0.11 kcal/mol	3.068 ± 0.021 kcal/mol	2.37 ± 0.062 kcal/mol
SMDLRLEVVSVEIEPEGRTLRIRVRVRLTALDPDDPDLPVPVLEVEVEIPIPLPEPLPLPVPNDPRALAASA [r9_357_TrMRF]	2.25 ± 0.21 kcal/mol	2.75 ± 0.037 kcal/mol	1.63 ± 0.11 kcal/mol
SAGMYTITISRLPGGEYEVRVTDAANGEEVARRPVASEEEARAEAERIAAEIAEADPDVEVRVSESDAESAG [r5_383_JUSTAS]	2.83 ± 0.04 kcal/mol	2.959 ± 0.023 kcal/mol	2.51 ± 0.066 kcal/mol
SAGGSAGGSMEVTYDEETGELTVRIEVDGKTLTLKFKSIEDLKAALEKLGIDVDDVKIVEIEPSAGGSAGGS [r12_834_TrROS_Hall]	4.67 ± 0.14 kcal/mol	4.75 ± 0.089 kcal/mol	4.18 ± 0.3 kcal/mol
SAGGSAGGKTIEITIKLEDGKELKIKIDSPEELDKITSVELIGPGKIKITVNGKTIEITIKPKPSAGGSAGG [r6_206_TrROS_Hall]	3.2 ± 0.16 kcal/mol	2.77 ± 0.072 kcal/mol	3.45 ± 0.14 kcal/mol
SAGGSAGGSAEKPPPPVVTLRVRVVVEVDGKLYVATAEVRLVDGKLEIRVRIEEVPPGAPVSAGGSAGGSAG [r3_49_TrROS_Hall]	4.34 ± 0.17 kcal/mol	4.59 ± 0.22 kcal/mol	3.7 ± 0.12 kcal/mol
SAGGSAGGSAGEVVLSPTDKTLTLTSFDPKTGVTYYTVFYPATGTTSTTSTGNLESLIAASAGGSAGGSAGG [r17_300_JUSTAS]	0.929 ± 0.084 kcal/mol	0.531 ± 0.13 kcal/mol	1.25 ± 0.024 kcal/mol
SAGGSAGGEEEELTEEERRELERRRRRLEEERRRRRPPRPRLRLTLTVRLPDGSTVTLEVEIRLSAGGSAGG [r6_844_TrROS_Hall]	3.16 ± 0.14 kcal/mol	3.73 ± 0.056 kcal/mol	2.2 ± 0.061 kcal/mol
SAGGSAGGSAGGSMVVEYDPETGVRTTTVALPSDSVEVTTEKIDPATGEVVETVTELAASAGGSAGGSAGGS [r4_415_JUSTAS]	0.358 ± 0.086 kcal/mol	0.634 ± 0.048 kcal/mol	-0.105 ± 0.027 kcal/mol
SAGGSAGGSADIKVEVEYDKSNGYMWVKIKLPGKDIPIWIPPNDSPEQMEEKAIDFAKYLLKSAGGSAGGSA [r18_266_TrROS]	0.791 ± 0.27 kcal/mol	0.765 ± 0.21 kcal/mol	0.592 ± 0.12 kcal/mol
